Test results: IntAct's records for PubMed 15378002

B1: Transcription factor Jun (Homo sapiens), P05412 (parent)
chain: MTAKMETTFYDDALNASFLPSESGPYGYSNPKILKQSMTLNLADPVGSLKPHLRAKNSDLLTSPDVGLLKLASPELERLIIQSSNGHITTTPTPTQFLCPKNVTDEQEGFAEGFVRALAELHSQNTLPSVTSAAQPVNGAGMVAPAVASVAGGSGSGGFSASLHSEPPVYANLSNFNPGALSSGGGAPSYGAAGLAFPAQPQQQQQPPHHLPQQMPVQHPRLQALKEEPQTVPEMPGETPPLSPIDMESQERIKAERKRMRNRIAASKCRKRKLERIARLEEKVKTLKAQNSELASTANMLREQVAQLKQKVMNHVNSGCQLMLTQQLQTF
partner: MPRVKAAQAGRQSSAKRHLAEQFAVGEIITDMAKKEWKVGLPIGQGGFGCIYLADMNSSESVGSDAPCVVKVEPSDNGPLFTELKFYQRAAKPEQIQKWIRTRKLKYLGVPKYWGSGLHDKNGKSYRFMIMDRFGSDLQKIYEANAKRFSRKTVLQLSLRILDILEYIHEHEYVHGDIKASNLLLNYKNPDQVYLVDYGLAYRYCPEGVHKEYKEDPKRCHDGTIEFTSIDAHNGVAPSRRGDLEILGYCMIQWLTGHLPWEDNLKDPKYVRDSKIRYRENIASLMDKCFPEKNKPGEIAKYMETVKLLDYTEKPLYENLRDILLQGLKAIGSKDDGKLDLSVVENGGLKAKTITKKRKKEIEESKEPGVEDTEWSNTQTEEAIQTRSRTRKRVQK
B2: Serine/threonine-protein kinase VRK1 (Homo sapiens), Q99986 (parent)
chain: B1 partner

Variants of: B1
Conditions: with vrk1_human VRK1, Q99986

effect of a mutation on the interaction	Variant
decreasing interaction	MTAKMETTFYDDALNASFLPSESGPYGYSNPKILKQSMTLNLADPVGSLKPHLRAKNSDLLTAPDVGLLKLAAPELERLIIQSSNGHITTTPTPTQFLCPKNVTDEQEGFAEGFVRALAELHSQNTLPSVTSAAQPVNGAGMVAPAVASVAGGSGSGGFSASLHSEPPVYANLSNFNPGALSSGGGAPSYGAAGLAFPAQPQQQQQPPHHLPQQMPVQHPRLQALKEEPQTVPEMPGETPPLSPIDMESQERIKAERKRMRNRIAASKCRKRKLERIARLEEKVKTLKAQNSELASTANMLREQVAQLKQKVMNHVNSGCQLMLTQQLQTF [S63A;S73A]

Variants of: B2
Conditions: with jun_human JUN, P05412

effect of a mutation on the interaction	Variant
disrupting interaction	MPRVKAAQAGRQSSAKRHLAEQFAVGEIITDMAKKEWKVGLPIGQGGFGCIYLADMNSSESVGSDAPCVVKVEPSDNGPLFTELKFYQRAAKPEQIQKWIRTRKLKYLGVPKYWGSGLHDKNGKSYRFMIMDRFGSDLQKIYEANAKRFSRKTVLQLSLRILDILEYIHEHEYVHGDIEASNLLLNYKNPDQVYLVDYGLAYRYCPEGVHKEYKEDPKRCHDGTIEFTSIDAHNGVAPSRRGDLEILGYCMIQWLTGHLPWEDNLKDPKYVRDSKIRYRENIASLMDKCFPEKNKPGEIAKYMETVKLLDYTEKPLYENLRDILLQGLKAIGSKDDGKLDLSVVENGGLKAKTITKKRKKEIEESKEPGVEDTEWSNTQTEEAIQTRSRTRKRVQK [K179E]
